Measured values: PMC8202958 (Cell reports, 2021)
Numbering of substitutions follows the chain as printed.

Assays:
Experiment in all cases: pull-down
GST-Ysc84 = target: T1, GST-Ysc84 (S. cerevisiae, UniProt P32793 1-468)
T1 sequence (looked up): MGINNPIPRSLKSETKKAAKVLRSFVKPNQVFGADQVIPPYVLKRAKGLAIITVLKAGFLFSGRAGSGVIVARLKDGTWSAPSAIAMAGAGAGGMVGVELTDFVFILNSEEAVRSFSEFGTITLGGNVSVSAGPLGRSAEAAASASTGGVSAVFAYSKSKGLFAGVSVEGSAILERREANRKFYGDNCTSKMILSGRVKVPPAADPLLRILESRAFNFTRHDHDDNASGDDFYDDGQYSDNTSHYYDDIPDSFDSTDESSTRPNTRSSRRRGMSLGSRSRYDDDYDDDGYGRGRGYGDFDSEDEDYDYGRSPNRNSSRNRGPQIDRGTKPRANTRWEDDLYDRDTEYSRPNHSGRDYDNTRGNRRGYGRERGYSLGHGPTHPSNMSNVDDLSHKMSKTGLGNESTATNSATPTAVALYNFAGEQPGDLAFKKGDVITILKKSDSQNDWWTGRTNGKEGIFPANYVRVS

GST-Sla1(1–420aa, W41S) = target: T2, GST-Sla1(1–420aa, W41S) (S. cerevisiae, UniProt P32790 1-420, W41S)
T2 sequence (looked up): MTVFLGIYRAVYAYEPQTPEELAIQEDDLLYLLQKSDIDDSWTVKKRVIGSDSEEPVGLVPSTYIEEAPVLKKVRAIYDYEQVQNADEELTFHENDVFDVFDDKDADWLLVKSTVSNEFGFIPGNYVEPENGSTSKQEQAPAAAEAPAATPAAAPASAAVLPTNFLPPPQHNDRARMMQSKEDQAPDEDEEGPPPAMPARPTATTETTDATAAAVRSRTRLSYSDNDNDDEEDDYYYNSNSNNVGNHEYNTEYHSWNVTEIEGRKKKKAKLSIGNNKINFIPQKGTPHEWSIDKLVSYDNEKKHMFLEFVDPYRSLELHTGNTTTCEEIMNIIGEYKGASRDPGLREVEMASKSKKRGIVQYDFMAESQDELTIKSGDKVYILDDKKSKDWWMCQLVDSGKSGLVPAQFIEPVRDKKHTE

GST-Lsb3 = target: T3, GST-Lsb3 (S. cerevisiae, UniProt P43603 1-459)
T3 sequence (looked up): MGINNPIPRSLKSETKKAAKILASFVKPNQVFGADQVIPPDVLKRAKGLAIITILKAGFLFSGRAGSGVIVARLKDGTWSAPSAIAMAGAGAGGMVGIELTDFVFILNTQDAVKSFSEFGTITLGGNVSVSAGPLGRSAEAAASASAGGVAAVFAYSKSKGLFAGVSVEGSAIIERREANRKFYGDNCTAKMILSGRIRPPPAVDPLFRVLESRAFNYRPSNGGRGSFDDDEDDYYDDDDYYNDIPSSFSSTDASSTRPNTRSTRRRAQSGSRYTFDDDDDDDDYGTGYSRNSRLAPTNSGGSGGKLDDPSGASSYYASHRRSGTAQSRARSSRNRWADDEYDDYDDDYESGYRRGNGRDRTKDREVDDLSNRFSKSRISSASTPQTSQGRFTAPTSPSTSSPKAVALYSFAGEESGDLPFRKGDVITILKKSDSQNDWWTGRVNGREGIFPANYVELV

GST-Sla1(1–420aa, W108S) = target: T4, GST-Sla1(1–420aa, W108S) (S. cerevisiae, UniProt P32790 1-420, W108S)
T4 sequence (looked up): T2 sequence (looked up) with S41W, W108S

GST-Sla1(1–420aa) = target: T5, GST-Sla1(1–420aa) (S. cerevisiae, UniProt P32790 1-420)
T5 sequence (looked up): T2 sequence (looked up) with S41W

Measured: binding result

B1: MBP-Ecm25(361–535aa) (domain or fragment, S. cerevisiae, UniProt P32525 361-535, looked up)
chain: EISSPPSSVSSSSTIPVLPKPRKSSPTRYSELGCLTLPRSRSPSPQRSVTSPTYTPVALQNTPVLKPKSSSRNVSSPSFNAKPPLPIKAVTRPQLSLTSNSNTDLALASSSTDTLSSPTKTPSADSLPLSNSSTDLTISDNIKEMVKDEPAKDKNSVETDIFVQQFESLTLVQNA
binds: GST-Ysc84 | GST-Sla1(1–420aa, W41S) | GST-Lsb3 | GST-Sla1(1–420aa, W108S) | GST-Sla1(1–420aa)

B2: MBP-Ecm25-C-term (361–599aa) (domain or fragment, S. cerevisiae, UniProt P32525 361-599, looked up)
chain: EISSPPSSVSSSSTIPVLPKPRKSSPTRYSELGCLTLPRSRSPSPQRSVTSPTYTPVALQNTPVLKPKSSSRNVSSPSFNAKPPLPIKAVTRPQLSLTSNSNTDLALASSSTDTLSSPTKTPSADSLPLSNSSTDLTISDNIKEMVKDEPAKDKNSVETDIFVQQFESLTLVQNAKIKKFDKELQEKKKKNETTSKTADKFSQKGYSDIKASNKVSRLAALYEERLQGLQVMNEMKQRW
binds: GST-Ysc84 | GST-Sla1(1–420aa, W41S) | GST-Lsb3 | GST-Sla1(1–420aa, W108S) | GST-Sla1(1–420aa)
